Measured values published in the Human Domainome abundance scans (Beltran et al. 2025).
± gives the uncertainty stated by the source.

B1: Chromodomain-helicase-DNA-binding protein 5, residues 338 to 390; numbered along this chain, Q8TDI0 (parent)
chain: YETDHQDYCEVCQQGGEIILCDTCPRAYHLVCLDPELEKAPEGKWSCPHCEKE

Variants of: B1
Assay: abundance fitness (aPCA) (normalised: wild type 0, dead -1); higher = more abundant; growth selection in yeast, the domain comes from the species named
Settings: Homo sapiens

Row | Variant | abundance fitness
1 | E36W | -0.321 ± 0.14
2 | E36S | -0.163 ± 0.13
3 | E36L | -0.093 ± 0.11
4 | E36D | 0.139 ± 0.16
5 | E36Y | -0.35 ± 0.15
6 | E36Q | 0.046 ± 0.13
7 | E36M | 0.069 ± 0.16
8 | W45H | 0.283 ± 0.2
9 | W45P | -0.086 ± 0.18
10 | W45K | -0.046 ± 0.22
11 | W45S | -0.054 ± 0.1
12 | W45C | 0.157 ± 0.14
13 | W45T | -0.393 ± 0.16
14 | W45Q | -0.29 ± 0.17
15 | W45M | 0.115 ± 0.17
16 | W45D | -0.268 ± 0.13
17 | W45G | -0.091 ± 0.096
18 | W45F | -0.05 ± 0.17
19 | W45E | -0.202 ± 0.14
20 | W45V | 0 ± 0.1
21 | W45A | -0.105 ± 0.14
22 | W45I | -0.146 ± 0.18
23 | W45Y | -0.293 ± 0.17
24 | W45L | -0.157 ± 0.12

Row | Variant | abundance fitness
25 | L33W | 0.032 ± 0.13
26 | L33Y | 0.064 ± 0.17
27 | H49N | 0.104 ± 0.32
28 | H49W | -0.69 ± 0.3
29 | H49S | -0.312 ± 0.24
30 | H49G | 0.071 ± 0.16
31 | H49L | -0.176 ± 0.2
32 | H49V | -0.45 ± 0.18
33 | H49A | -0.011 ± 0.2
34 | H49Q | 0.032 ± 0.23
35 | H49T | 0.139 ± 0.26
36 | H49Y | -0.042 ± 0.2
37 | H49E | -0.225 ± 0.26
38 | H49D | 0.422 ± 0.32
39 | H49K | 0.041 ± 0.41
40 | H49P | -0.024 ± 0.26
41 | H49R | -0.291 ± 0.16
42 | H49M | -0.234 ± 0.42
43 | E38K | -0.199 ± 0.22
44 | E38W | -0.127 ± 0.15
45 | E38M | 0.042 ± 0.16
46 | E38C | -0.221 ± 0.17
47 | E38S | -0.225 ± 0.14
48 | E38I | -0.294 ± 0.24

Row | Variant | abundance fitness
49 | E38Q | -0.008 ± 0.15
50 | E38T | -0.252 ± 0.17
51 | E38R | -0.147 ± 0.1
52 | E38N | -0.271 ± 0.26
53 | E38F | -0.053 ± 0.17
54 | E38A | -0.024 ± 0.13
55 | E38V | -0.157 ± 0.12
56 | E38P | 0.188 ± 0.15
57 | E38L | -0.115 ± 0.13
58 | E38H | -0.207 ± 0.2
59 | S46F | -0.035 ± 0.17
60 | S46L | 0.051 ± 0.12
61 | S46Q | -0.331 ± 0.15
62 | S46N | -0.056 ± 0.3
63 | S46I | 0.137 ± 0.24
64 | S46M | -0.266 ± 0.15
65 | S46K | -0.258 ± 0.18
66 | S46P | -0.109 ± 0.13
67 | S46V | 0.011 ± 0.1
68 | S46H | -0.203 ± 0.22
69 | S46G | -0.005 ± 0.1
70 | S46D | -0.197 ± 0.14
71 | S46Y | -0.335 ± 0.16
72 | S46R | -0.143 ± 0.094

Row | Variant | abundance fitness
73 | S46T | 0.024 ± 0.15
74 | S46A | -0.11 ± 0.12
75 | S46C | 0.073 ± 0.2
76 | S46W | -0.14 ± 0.13
77 | S46E | -0.023 ± 0.12
78 | K52D | -0.038 ± 0.15
79 | K52Q | -0.482 ± 0.2
80 | K52E | -0.288 ± 0.17
81 | K52T | 0.473 ± 0.14
82 | K52W | -0.082 ± 0.17
83 | K52V | -0.324 ± 0.12
84 | K52I | -1.1 ± 0.42
85 | K52R | -0.109 ± 0.13
86 | K52S | -0.115 ± 0.14
87 | K52A | -0.182 ± 0.13
88 | K52C | -0.381 ± 0.23
89 | K52P | -0.5 ± 0.2
90 | K52M | 0.083 ± 0.18
91 | K52H | 0.223 ± 0.3
92 | K52N | -0.378 ± 0.29
93 | K52L | -0.249 ± 0.14
94 | K52G | 0.028 ± 0.099
95 | K52F | -0.248 ± 0.22
96 | D34A | 0.052 ± 0.12

Row | Variant | abundance fitness
97 | D34S | 0.093 ± 0.13
98 | D34H | 0.039 ± 0.18
99 | D34R | -0.125 ± 0.11
100 | D34P | -0.15 ± 0.21
101 | D34L | -0.201 ± 0.11
102 | D34F | -0.058 ± 0.16
103 | D34G | -0.167 ± 0.13
104 | D34C | -0.161 ± 0.18
105 | D34K | -0.347 ± 0.24
106 | D34W | -0.516 ± 0.18
107 | D34Q | -0.098 ± 0.17
108 | D34V | -0.14 ± 0.1
109 | D34Y | -0.269 ± 0.25
110 | D34I | -0.313 ± 0.24
111 | D34N | -0.354 ± 0.2
112 | D34T | -0.195 ± 0.2
113 | D34M | -0.403 ± 0.19
114 | D34E | 0.266 ± 0.15
115 | K39Y | -0.278 ± 0.2
116 | K39P | -0.091 ± 0.19
117 | K39C | -0.358 ± 0.21
118 | K39D | -0.208 ± 0.15
119 | K39T | -0.029 ± 0.18
120 | K39V | -0.189 ± 0.11

Row | Variant | abundance fitness
121 | K39E | -0.096 ± 0.13
122 | K39M | 0.191 ± 0.2
123 | K39I | -0.045 ± 0.24
124 | K39A | -0.081 ± 0.11
125 | K39F | -0.315 ± 0.23
126 | K39W | -0.242 ± 0.18
127 | K39S | -0.251 ± 0.15
128 | K39G | 0.03 ± 0.089
129 | K39L | -0.002 ± 0.14
130 | K39Q | -0.232 ± 0.3
131 | E51W | -0.25 ± 0.18
132 | E51N | 0.086 ± 0.19
133 | E51Y | -0.207 ± 0.21
134 | E51Q | -0.005 ± 0.15
135 | E51S | -0.365 ± 0.11
136 | E51A | -0.12 ± 0.093
137 | E51L | -0.105 ± 0.1
138 | E51C | -0.123 ± 0.19
139 | E51D | -0.114 ± 0.15
140 | E51M | -0.401 ± 0.17
141 | E51G | -0.095 ± 0.1
142 | E51R | -0.396 ± 0.12
143 | E51H | -0.367 ± 0.23
144 | E51V | -0.209 ± 0.099

Row | Variant | abundance fitness
145 | E51T | 0.088 ± 0.14
146 | E51P | -0.367 ± 0.15
147 | E51K | 0.031 ± 0.2
148 | E51I | -0.387 ± 0.16
149 | C47P | -0.96 ± 0.2
150 | C47G | -0.797 ± 0.14
151 | C47W | -0.58 ± 0.13
152 | C47H | -0.248 ± 0.18
153 | C47A | -0.841 ± 0.15
154 | C47I | -0.95 ± 0.38
155 | C47F | -0.765 ± 0.28
156 | C47Q | -0.918 ± 0.2
157 | C47Y | -1.2 ± 0.28
158 | C47E | -0.9 ± 0.18
159 | C47R | -0.922 ± 0.11
160 | C47M | -0.945 ± 0.17
161 | C47N | -0.953 ± 0.35
162 | C47V | -0.773 ± 0.19
163 | C47S | -0.609 ± 0.12
164 | C47L | -0.855 ± 0.12
165 | C47T | -0.43 ± 0.14
166 | C47D | 0.064 ± 0.21
167 | C47K | -0.599 ± 0.22
